Measurements published in the supplement of paper PMC9170038.

System: MS2 coat protein
Assay: apparent KD of MS2 coat protein; designed switch direction (-1 OFF switch, 1 ON switch): 1; higher = weaker reporter binding
In short: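 RNA switches sharing common flanks were transcribed by stalled E. coli RNA polymerase on Illumina chips. A doubling series of SNAP-549-labelled MS2 coat protein, from 0.7 or 1.5 nM to 3 µM, was applied in Tris-HCl pH 7.5 buffer with KCl, MgCl2, BSA, DTT, tRNA and Tween-20. Each step lasted 0.8–1.5 h at the bottom of the series and 10–20 min at the top. Normalised cluster fluorescence was curve-fitted, giving apparent KD as the per-design median over clusters.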

[1] = input ligand: microRNA oligo, concentration not stated

Row | Sequence | apparent KD of MS2 coat protein [1] [nM] | apparent KD of MS2 coat protein (input ligand: FMN 200 uM) [nM] | apparent KD of MS2 coat protein (input ligand: none) [nM] | apparent KD of MS2 coat protein (Eterna round: R95, input ligand: FMN 200 uM) [nM] | apparent KD of MS2 coat protein (Eterna round: R95, input ligand: microRNA oligo, concentration not stated) [nM] | apparent KD of MS2 coat protein (Eterna round: R95, input ligand: none) [nM]
1 | UUGCUCGUGUGAGGAUAUGCCGCCGUUUCGGCUGCAGAAGGUACUUUAAUACAUGAGGAUCACCCAUGUCUCUGUUGUUUCGUG [salish99_SSNG1_r04_933] (Eterna round: R96, puzzle: Same State NG 1) | 23.1 |  |  |  |  | 
2 | GGAAUAUGAUGUUACAUGAGGAUCACCCAUGUAGUGAUAACUAAGGAUAUCUGUUAAGAUAACUAAGAGAAGGUAGGAUCAUAA [AK SSNG3-V2-8.3] (Eterna round: R96, puzzle: Same State NG 3) | 44.9 | 49.7 | 55.9 |  |  | 
3 | AUUGCUUACGCAGGAUAUGAUGCGAAAAUUGCGUCAGAAGGGUGAAGUAUCUCAUUGCAACAGGACAUGAGGAUCACCCAUGUC [SameState NG1 #99] (Eterna round: R96, puzzle: Same State NG 1) | 303 | 150 | 455 |  |  | 
4 | AAGAAGACGGACAAGGAUAUGUCAAAGGAAACAUGAGGAUCACCCAUGUGGAGAUUGGAAAAGAAACAGAAGGUGUACGGAGAGA [JR_SS2_Sub007] (puzzle: Same State 2) |  |  |  | 10.6 | 12.3 | 29.3
5 | UUUAGUUGCGGGCAGGAUAUGUGUUAAAAUACAUGAGGAUCACCCAUGUGCGGGUAUAACACCCGACAGAAGGGCCAAUCGCGAC [Laonerce - 2] (Eterna round: R96, puzzle: Same State 2) | 44.2 | 13.5 | 54.9 |  |  | 
6 | CGGGUCGUGCUAGGAUAUCUAGGAUAUGGACGAGGAUUACCCGAGCAGCAUUAGCGCACCAGAGGAGAGAAGGAGCGUGAUGCG [pwkr ssNG2 2F5 2FMN.15] (Eterna round: R96, puzzle: Same State NG 2) | 42.2 | 287 | 109 |  |  | 
7 | UAAGUCAUGUAAGGAUAUGCAGCCGAAACGGCUGCAGAAGGUACUAUAAUUACAUGAGGAUCACCCAUGUUAUAAAAUUUAUAU [Mat - Same State NG 1 - JL mod - D77] (Eterna round: R96, puzzle: Same State NG 1) | 39 | 22.4 | 54.5 |  |  | 
8 | AUUGCUUACGCAGGAUAUGAUGCGGAAACUGCGUCAGAAGGGUGAACAGAAUCGUUGCAAGAAGACAUGAGGAUCACCCAUGUC [SameState NG1 #96] (Eterna round: R96, puzzle: Same State NG 1) | 33.5 | 33.9 | 44.4 |  |  | 
9 | GGAAUAUUUACAGGAUAUGUUUUGUUAAGUCGAGCAGAAGGGUAGAUGUCUUACACGGUUUGUUACAUGAGGAUCACCCAUGUC [SameState NG1 #16] (Eterna round: R96, puzzle: Same State NG 1) | 80.3 | 26.4 | 126 |  |  | 
10 | AAAGGAUGAUGUUACAUGAGGAUCACCCAUGUUGUGAUAACUAAGGAUAUGUGUUUAACUAGUUAAUAGAAGGUAGGAUCAUAA [AK SSNG3-V2-3] (Eterna round: R96, puzzle: Same State NG 3) | 84.2 | 150 | 118 |  |  | 
11 | ACAUGAGGAUCACCCAUGUAUGCUCAGGAAACUGUGCAUCGUGAGGAUAUGGAUCCUAAUUGGAUCCAGAAGGCAUGUAUUAUU [Fiskers NG3ss - 27] (Eterna round: R96, puzzle: Same State NG 3) | 23.9 | 321 | 153 |  |  | 
